For this test, the target named is HOIP PUB domain (aa 1–184) (UniProt Q96EP0). Briefly: fluorescence polarisation; FITC-Ahx-labeled PIM peptides with purified PUB domains; triplicate.

By Kd is commonly meant the free concentration of one partner at which half of the binding sites on the other are occupied at equilibrium, for simple one-to-one binding. Read a high Kd as weaker binding.

Sequence of HOIP PUB domain (aa 1–184) (Q96EP0 1-184): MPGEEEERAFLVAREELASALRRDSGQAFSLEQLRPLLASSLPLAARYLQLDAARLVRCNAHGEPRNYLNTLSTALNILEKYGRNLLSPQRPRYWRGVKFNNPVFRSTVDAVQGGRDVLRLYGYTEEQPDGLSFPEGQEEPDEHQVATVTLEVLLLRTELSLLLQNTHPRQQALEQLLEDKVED

In turn, FITC-Ahx-labeled OTULIN PIM peptide yielded a Kd of 300 nM.

The substance FITC-Ahx-labeled SPATA2 PIM peptide yielded an equilibrium dissociation constant (Kd) of 300 nM.

Source of the values: publication PMC5031558.
